Results published in a protein production outcome set (Wang et al. 2014).

Assay: label from the status in PepcDB records

Sequence | protein production
MLEKVFQEITNKRKFFASSSTGEQFENQFRNELKKHFSEINGDLTEELSHIEEKPNKEIKTTFNQLKKQVLEKNHPHTLKNPFSNLTSHFLYQPFGSQNYPDFLVFIFDYVVGIEIKFSKNDKGEKNLQTSRPMWNSNLPKPNAIYVYGVANANITFFKGSDILSYETREVLLKYFDILDKDERSLKNALKDLENPFGFAPYIRKAYEHKRNFLTTTRLKASFRPTTF | failed
MLENIRIVLIETSHSGNIGSAARAMKTMGLTQLCLVSPKSVDEQSYALSAGAENIVKNARVVDSFDEAVDDCPLVIGTSARLRHLQNTLIEPRECAEKVVAYKGKIAIVFGRERIGLTNEELLKCHYHLNIPANPDYSSLNLAMAVQLVSYELRMAFLVQNNKKNSLSLIEKNYPTTDQLAYFFDYTERIYQSLGFIQNQGVMRKLKRLYYRAKLEKNELNILNGMLSAVEKRIDLTKEDN | not failed
MLEQGLDYVVKLAKSKKQILDANPMQYFIRAALAGIYIGFIIVLCFKLGNFFHIADSPATYLAASMFFGIALVLIIYGGAELFTGNTMYFTVATLRKETTISDTLRNWVACYAGNLAGALFFALLFYATGIFEAIDHGHLMNKVVEGKMNTPTMQLFFKAILCNWLVCLACFLPSQVKGDTAKIMIMMLLVFTFFLSGYEHSIANLSLFALSLVSPHPETISFAGAIHNLIPVTIGNIIGGSVFVGMVYHYLTKKVPDVKQEETELVAAQQEEIIPLQAHMKH | failed
MLEQILLGTYTRRASQGIYKIALDTTQGRLTEATLLLEETSPTYLALSQKGELFSVTSVDGEGGTAAYQPEMDHFNLLNKVTEEGAPPCYVAVDENRQLVYAANYHQGIVHVYRILEDGSLEDADKVIHTEPTGPHENQNNAHVHYTDLTPDQRLVVCDLGTDRVYTYNVSLDGKLSEIAQFVTEPGTGPRHLVFHPTKSLAYLFGELDSTVSVLSYDETDGSFTELQKVSTLPADYDAFNGGAAIRISSDGRFLYASNRGHNSIAVYAVSENGEAIERIQLISTEGDIPRDFDLDPSEDFIVVANQDSDNLTLYRRNQETGLLEMIQKDVAVPECVCVLFVLEHHHHHH | not failed
MLETDLEARMQILRESGFQESQGDDDTFAQRAEWFYQGRPLLLSLCLDLYNGYVTLLGRSSHQTRLKPTTSLPNQLLQDDDDCISDIDSVSEVSSEVESTLSFQQMKDPTAVSEKVDELVSQLVTASLDKEILKHELLHKDQQFHEASKTIELLKKFVMLLEMEKEVAVEENANLGYKLTSLLEENRELATEALFMKNEAVGLARCVLKMRDDHFHKVCILQNRIYSLQASRNSEPVSDKVSYGCFGLDKHKTKKKKENKTEEKKPGFKWLKKLNTINLFTKCSLNPSAAAPSCCTFDLPY | failed
MLEVDVVRISVIVPIYNVKLYIERCVRSLMEQTLENIEFIFVNDCTPDDSMDILHYVLEEYPKRREQIKIIEHETNRGISAVRNTGLKNATGQYIIYCDSDDWVEKNMYEKLLVKALETSADIVGCDFFDDYVAHSTIRKQLFPQQSEKCVKKMLRGELHCGTWNKLVIKSLYERTKIDFPEGINMWEDVSTIIPLCFHATKIDYIPEALYHYIHHNVSSYTYSVTEKSLENLVASIQLLESFFLTNQCFKTFGEDLCFMKLTVKLNLLLGSKGELQKKRNMLYSSANRYIFSYSGMSWYWKIALWVASKKMLFCFNVMSCIERIIKKWKLEHHHHHH | failed
MLFNRHNKTTDSLQQTIAEQSRLLEAIDRSMAVIEFDLQGNVLRANANFLQTLGYREDQVTGQPHRLFCTPEYVRSSDYQQLWNRLRSGQFESGTFERVASNGQSLWLEASYNPIRDASGAVYKVVKYALDVTARVQEEVEARNKLDAIDRAMAVIEFNLDGSIIGANSNFLSRMGYSLAEIKGKHHRMFCKPELINSSAYQDFWNRLNRGEFFNGQFERIDRHGRTLWLEANYNPVYDASGRLCKVVKYAADVTQQVEKHEQDAQSASQAYHISVQTRKVAEQGTGVIQQAASEMRQIAENIEGSSSLIARLGERSEQITAIVNTIRAIADQTNLLALNAAIEAARAGDQGRGFAVVADEVRQLAARTSGSTAEISSMIDMIQNETQQAIKSMDGTRERAAKGVQLADQAGTVILQIRDGASEAVEAVSMFANERGAP | failed
MLFSASLIHRIEFAPQRELYFLALYRILEAGLIAALVFSPVSLLVDPESDPHLGTVVAVGYLLLATILLVWGRNERWFTPLVFGSTVADILAATLAIHALPKASAGIAMMLLFNVAAAAILLRLRFSMILAWIAGVAMLVEYIWTVLSEGDSSRSLAELLMFFTSYTAVAYMCHQAAQRARYSQALAEKRRAQIVNLAEINELIIRRMRTGVLVVDAANRIGLSNETAAALLGYDRQLVESDYDLATVAPELIMRLKCWRIGRHYEDTPLRLAPDQPEVQPRFVSLLADSGLTLIFLDDVSVVSRRAESLTLLALGRFSASLAHEIRNPLAAIKHASQLLEESSNLDKGDQRLLDIILKQCQRTNGIVESVLGLARRERANPENLDLVGFVSRFVDEYRQTLSSEYDNLEIQTLHSTVQALVDPRHLYQILAVLTHNALRYGRFPDTPAQVRIEVVYTGGSVGINVLDQGPGIPDAAVLQLFQPFFTTSDHGTGLGLYIARELCNANQSNLEYVAIPGGGACFRITLPGPYALIPN | failed
MLGLFLIFWGLLLLLSLATFDLRDPSLNHVVSNPTEIRNGAGMFGSYLGGMLADAFGIAAFLWPVGFIGLGARYIIVSFDIAWWRWAGLLALSLCMVTAGAAWELSLGDVNAGGVLGDLLYRFSWKALSPRGSTLVWLFLCIIGLQLTFDISWTALFRRIVDKVRADLEAHPVSRPQLPELKLPRLGLPSGLHLPGRKGAEGNAPATLAVVDVTPDGSDSTNGAPSVVAREASTPRGMPVETDDFVLSEDRLQPPASELPFEVVLDADTDGVADLTADVESDISEGAGRPKAKMRRKSQLPPLDLLHSALNEDSRPDREVLEGKGLSLTNCLSDFGVQGELTRITPGPVVTMFEFRPAPGVKVSRIANLSDDLALALKAIAVRIQAPIPGTDTVGIEIPNETRETVCFKELLSSDTFKGASSLLTLAIGKDIAGRPTVADLSKMPHLLVAGATGAGKSVCLNSILLSILYKARPEDVKLLLVDPKRIELAVYADLPHLVHPVVTEMAHAKNALDWAVHEMDKRYEGMARLGVRNIAGYNQKLEDMGKERPADLADLEAMPYLVIIIDELADLMLTAAKEVETSIVRLAQLARAAGIHLILATQRPSVDVVTGLIKANFPCRISFQVTSKHDSRTILDTVGAEFLLGKGDMLFKPSGGKLQRLHGAFVSDDDVNGVVAFWKKQQPPSYKVDFAEWGNEGTLDGNGGSGGAGDLADDPVYAEAVEFVMGQGRASISLIQRRFRIGFNRAARYVEQMEQDGIIGPADGSKPRSVIRGKE | failed
MLGLKTSIIGRRVIYFQEITSTNEFAKTSYLEEGTVIVADKQTMGHGRLNRKWESPEGGLWLSIVLSPKVPQKDLPKIVFLGAVGVVETLKEFSIDGRIKWPNDVLVNYKKIAGVLVEGKGDKIVLGIGLNVNNKVPNGATSMKLELGSEVPLLSVFRSLITNLDRLYLNFLKNPMDILNLVRDNMILGVRVKILGDGSFEGIAEDIDDFGRLIIRLDSGEVKKVIYGDVSLRFL | not failed
MLGLLRRLFDNNEREIARYYKQVVEPVNRLEAEVEKLPDLAAAYRELKEKHEKGASLDELLPMAFALTRESAKRYLGMRHFDVQLIGGAVLHEGKIAEMKTGEGKTLVATLAVALNALTGKGVHVVTVNDYLARRDAEWMGPVYRGLGLSVGVIQHASTPAERRKAYLADVTYVTNSELGFDYLRDNMAISPDQLVLRHDHPLHYAIIDEVDSILIDEARTPLIISGPAEKATDLYYKMAEIAKKLERGLPAEPGVRKEPTGDYTVEEKNRSVHLTLQGIAKAEKLLGIEGLFSPENMELAHMLIQAIRAKELYHRDRDYIVQDGQVIIVDEFTGRLMPGRRYGEGLHQAIEAKEGVRIERENQTLATITYQNFFRLYEKRAGMTGTAKTEEKEFQEIYGMDVVVVPTNRPVIRKDFPDVVYRTEKGKFYAVVEEIAEKYERGQPVLVGTISIEKSERLSQMLKEPRLYLPRLEMRLELFKKASQKQQGPEWERLRKLLERPAQLKDEDLAPFEGLIPPKGNLRTAWEGLKRAVHTLAVLRQGIPHQVLNAKHHAREAEIVAQAGRSKTVTIATNMAGRGTDIKLGGNPEYLAAALLEKEGFDRYEWKVELFIKKMVAGKEEEARALAQELGIREELLERIREIREECKQDEERVRALGGLFIIGTERHESRRIDNQLRGRAGRQGDPGGSRFYVSFDDDLMRLFASDRVIAMLDRMGFDDSEPIEHPMVTRSIERAQKRVEDRNFAIRKQLLQFDDVLSRQREVIYAQRRLILLGKDEEVKEAAIGMVEETVASLAENFLNPEVHPEDWDLEGLKATLLDTAPQLQDFPFAELRALKAEEAVERLVEAALKAYEAREAELSPPLMRAVERFVILNVVDNAWKEHLHNLDVLRQGIFLRGYGQKDPFQEYKIEATRLFNEMVAFIKSEVAKFLFRLKVEAEPVRPVREAPYVPVPEAKPEPSEVFGVERKRATPPPQPGLSRAERRRLMRQEKKRKK | not failed
MLGMGVFKQLIKGLYEWLLHSIDVATQHLVAIVLKISVVKYLIKEFHDRFIYFIDLIAQHFIIVALSSFLVLVFGVLIGVLVFYNSKARAFLLPVVNFLYTIPSLALFALFIPVIGVGLKNALLVLVLYGLLPIVHSTYNALKEVREEVIKAAIGLGCNPKELFFKVRFLLAIPQILAGLRIAVVMLVAMAGIGALIGAGGLGQAIFRGLNTQNTTLLVAGSLIIALFSVLADKFVSVFQHENALQRLFSQNATKKQKRRVYTNLAVFLFLLLASALWLIPRNAIEEKPLVVATKPSSEQYILGEILSLLLEKHHIPIKRAFGIGGGTMNIHPALIRGDFDLYVEYTGTAWVNTLKNPLTQKVDFETIKKRYEKEFNLLWVGLLGFNNTYSLAISKEDAQKYAIETFSDLAFHSPNFDFGAEFDFFEREDAFKGLVKAYRFHFRSLHEMDINLRYKSFESHKINALDVFTTDAQIKELDLKVLKDDKGFFPNYQAGIVIRKEIVKKYPEALEILEKLDSKISDEKMQDLNYQVEVLKKSPQIVAKDFLERLGL | failed
MLGRAFQDLNRLRQISAAMARHGFGAYLERMRLRDVLGRDAPPPGQPLPPPDRTTAARFRTMLGELGPTFIKLGQLLSSRPDVLPSHWVDELEKLQDACPPVGVAEIREEIERGLGRPVEALFAALDPVPLASASIAQVHRATTHEGVQVVVKVQRPRIREQIESDLALLHDLAGLLEAVVEETGIYTPTGVMEEFDRTIHEELDFSNEARNATAMYETSAGREFLVIPRVHKALSCDTVLTLDYVEGVKVSDVTAEAGFDLEQVARNVIEASFRQLFEDGLFHGDPHPGNILVLPGNRIALLDFGLVGRLSRVQQEALVTLIVAVALRDPETVARVLNRIGVPDARAPITEFREDIRVILDRYLGLRLDEIRSATLLRDLLDLAIRHRIRIPKEYAVLAKASVTIEGIIRRLYPKLDILEVGLPYAKELLLSRFNPSDASGLVMRALLKLQGLAEDVPTQLSQILVDLEGGKFRVNVASDAIDRIGGHVRALGVLLFLGLLAAGLTVGGLVVLAGGEGLLGGLALGAAALLCAFAAAYHLATLRMRKISLRRWLKR | failed
MLGYVWLVEGRELMRWQELCTPAVICVGGVDPSAGAGITADVRTAENMGVRAYTVATAITFQGSGSYRGERWVDSADIIRQIESLSAEMEPAVAKIGLIRDSDTLSLVVDCLKKVFPSIRIVWDPVLRASADSSAGQADRFNLEDITALSRIDFITPNLPEARHLLGCEPDDETLLDFYRRSGVGLVLKGGHAGESVVTDRIVYDGRCEALRLLRGGTGKHGTGCAHSTAFAAALALEQEPFTAAGMAQLYVSRLRERASGLLAMHKDLPVDPVVRLMSEIDLQFITHRQPDLSELEEAEAVCRIGVRWVQLRMKEASDEEMLHTACAVKAVCRHHGALFVVNDRVEIARQVDADGVHLGKEDMAIVEARRILGSNKIIGRTCNTMEDVRRAYAEGADYVGIGPYRYTETKQRLAPVLGLEGYKAIAACMQAEGIRLPAFAIGGIEDADIPLIRDCGIGGIAVSGSLIRKIKKNLEHHHHHH | failed
